The source of these data is paper doi:10.1101/2021.01.06.425396.

This assay has as its target T1, tetherin (Bst2), endogenous (human (endogenous in HeLa)), Q10589.
T1 chain: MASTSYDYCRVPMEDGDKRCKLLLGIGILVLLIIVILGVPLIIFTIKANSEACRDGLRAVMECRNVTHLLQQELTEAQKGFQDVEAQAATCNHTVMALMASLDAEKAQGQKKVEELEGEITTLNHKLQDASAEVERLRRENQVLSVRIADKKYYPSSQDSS
Put plainly: non-reducing SDS-PAGE and Western blot. The following applies: remark: other sources report otherwise. A general note: A western blot detects proteins with antibodies after separation by electrophoresis.

Usually stoichiometry N stands for a count of units in the complex or per binding partner.

B1: tetherin (Bst2), endogenous, Q10589 1-161 (natural protein)
chain: T1 chain
B1 registered a stoichiometry N of 2.
